In PMC10786891, “Massively parallel profiling of RNA-targeting CRISPR-Cas13d”:
Residue numbers refer to the chain shown, from its start. Numbers in names are those of the source.

T1: EsCas13d, nuclease-dead (Eubacterium siraeum, UniProt B0MS50, R295A;H300A;R849A;H854A)
T1 sequence: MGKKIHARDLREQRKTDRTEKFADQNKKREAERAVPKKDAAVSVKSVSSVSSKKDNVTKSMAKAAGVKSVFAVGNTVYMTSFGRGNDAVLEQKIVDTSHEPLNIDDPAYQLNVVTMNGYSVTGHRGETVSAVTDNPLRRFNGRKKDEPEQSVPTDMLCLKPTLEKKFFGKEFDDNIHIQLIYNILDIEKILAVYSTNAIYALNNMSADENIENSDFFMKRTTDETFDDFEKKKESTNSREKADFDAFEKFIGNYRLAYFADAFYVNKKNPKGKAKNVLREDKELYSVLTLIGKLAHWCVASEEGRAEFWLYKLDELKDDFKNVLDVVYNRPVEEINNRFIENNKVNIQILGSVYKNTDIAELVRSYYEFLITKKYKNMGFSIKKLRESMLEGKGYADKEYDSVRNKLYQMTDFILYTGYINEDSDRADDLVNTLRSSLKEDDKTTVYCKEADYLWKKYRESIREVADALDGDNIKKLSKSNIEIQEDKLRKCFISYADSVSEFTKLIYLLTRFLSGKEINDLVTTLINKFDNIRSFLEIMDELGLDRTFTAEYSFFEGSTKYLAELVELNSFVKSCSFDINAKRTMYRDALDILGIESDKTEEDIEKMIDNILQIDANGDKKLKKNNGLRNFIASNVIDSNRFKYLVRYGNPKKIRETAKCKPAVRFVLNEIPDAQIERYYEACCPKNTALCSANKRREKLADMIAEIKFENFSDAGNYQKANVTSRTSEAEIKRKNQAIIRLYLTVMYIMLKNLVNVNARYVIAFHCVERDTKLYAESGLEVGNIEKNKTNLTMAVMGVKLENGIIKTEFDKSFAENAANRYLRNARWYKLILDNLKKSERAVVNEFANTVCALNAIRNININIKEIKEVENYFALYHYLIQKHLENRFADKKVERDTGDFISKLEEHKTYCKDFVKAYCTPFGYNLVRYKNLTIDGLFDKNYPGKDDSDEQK

B1: target 1 A1U,G13A (mixed)
RNA 1: CACCCGUGCAAAAAUGCAGGGGUCUAAAACUGAGCGGAUAACCUCUCUAUGG
RNA 2: GGGAAUGGAUCCACAUCUACGAAUUCGUACCAUAGAGAAGUUAUCCGCUCUCCGAGAUCGGAAGAGCACACGU
B2: target 1 insU 3' of 22,insG 3' of 14 (mixed)
RNA 1: B1 RNA 1
RNA 2: GGGAAUGGAUCCACAUCUACGAAUUCGUACUCAUAGAGAGGGUUAUCCGCUCACCGAGAUCGGAAGAGCACACGU
B3: target 1 insA 3' of 13,insA 3' of 11 (mixed)
RNA 1: B1 RNA 1
RNA 2: GGGAAUGGAUCCACAUCUACGAAUUCGUACCAUAGAGAGAGUAUAUCCGCUCACCGAGAUCGGAAGAGCACACGU
B4: target 2 MT 5'PFS GGC 3'PFS CGU (mixed)
RNA 1: CACCCGUGCAAAAUUGCAGGGGUCUAAAACCUUCUCCAAAUUGUUUCAUCCU
RNA 2: GGGAAUGGAUCCACAUCUACGAAUUCGGCAGGAUGAAACAAUUUGGAGAAGCGUAGAUCGGAAGAGCACACGU
B5: target 2 MT 5'PFS GCA 3'PFS UAU (mixed)
RNA 1: B4 RNA 1
RNA 2: B4 RNA 2 with G28C, C29A, C52U, G53A
B6: target 2 MT 5'PFS AAA 3'PFS UCC (mixed)
RNA 1: B4 RNA 1
RNA 2: B4 RNA 2 with G27A, G28A, C29A, C52U, G53C, U54C
B7: target 2 MT 5'PFS AAA 3'PFS UCG (mixed)
RNA 1: B4 RNA 1
RNA 2: B4 RNA 2 with G27A, G28A, C29A, C52U, G53C, U54G
B8: target 2 MT 5'PFS CAU 3'PFS UCA (mixed)
RNA 1: B4 RNA 1
RNA 2: B4 RNA 2 with G27C, G28A, C29U, C52U, G53C, U54A
B9: target 2 MT 5'PFS UAU 3'PFS CAA (mixed)
RNA 1: B4 RNA 1
RNA 2: B4 RNA 2 with G27U, G28A, C29U, G53A, U54A
B10: target 2 MT 5'PFS ACC 3'PFS ACG (mixed)
RNA 1: B4 RNA 1
RNA 2: B4 RNA 2 with G27A, G28C, C52A, G53C, U54G
B11: target 2 MT 5'PFS AAA 3'PFS UCU (mixed)
RNA 1: B4 RNA 1
RNA 2: B4 RNA 2 with G27A, G28A, C29A, C52U, G53C
B12: target 2 MT 5'PFS GAC 3'PFS UAC (mixed)
RNA 1: B4 RNA 1
RNA 2: B4 RNA 2 with G28A, C52U, G53A, U54C
B13: target 2 MT 5'PFS ACC 3'PFS ACU (mixed)
RNA 1: B4 RNA 1
RNA 2: B4 RNA 2 with G27A, G28C, C52A, G53C
B14: target 2 MT 5'PFS GCG 3'PFS CGC (mixed)
RNA 1: B4 RNA 1
RNA 2: B4 RNA 2 with G28C, C29G, U54C
B15: target 2 MT 5'PFS AUA 3'PFS UGU (mixed)
RNA 1: B4 RNA 1
RNA 2: B4 RNA 2 with G27A, G28U, C29A, C52U
B16: target 2 MT 5'PFS UUA 3'PFS AUC (mixed)
RNA 1: B4 RNA 1
RNA 2: B4 RNA 2 with G27U, G28U, C29A, C52A, G53U, U54C
B17: target 2 MT 5'PFS UAU 3'PFS CAG (mixed)
RNA 1: B4 RNA 1
RNA 2: B4 RNA 2 with G27U, G28A, C29U, G53A, U54G
B18: target 2 MT 5'PFS ACC 3'PFS ACC (mixed)
RNA 1: B4 RNA 1
RNA 2: B4 RNA 2 with G27A, G28C, C52A, G53C, U54C
B19: target 2 MT 5'PFS ACA 3'PFS AAC (mixed)
RNA 1: B4 RNA 1
RNA 2: B4 RNA 2 with G27A, G28C, C29A, C52A, G53A, U54C
B20: target 2 MT 5'PFS UAU 3'PFS UUU (mixed)
RNA 1: B4 RNA 1
RNA 2: B4 RNA 2 with G27U, G28A, C29U, C52U, G53U
B21: target 2 MT 5'PFS AUC 3'PFS AAC (mixed)
RNA 1: B4 RNA 1
RNA 2: B4 RNA 2 with G27A, G28U, C52A, G53A, U54C
B22: target 2 MT 5'PFS GCA 3'PFS UAG (mixed)
RNA 1: B4 RNA 1
RNA 2: B4 RNA 2 with G28C, C29A, C52U, G53A, U54G
B23: target 2 MT 5'PFS CAU 3'PFS UCC (mixed)
RNA 1: B4 RNA 1
RNA 2: B4 RNA 2 with G27C, G28A, C29U, C52U, G53C, U54C
B24: target 2 MT 5'PFS GCA 3'PFS UAC (mixed)
RNA 1: B4 RNA 1
RNA 2: B4 RNA 2 with G28C, C29A, C52U, G53A, U54C
B25: target 2 MT 5'PFS UCA 3'PFS CUG (mixed)
RNA 1: B4 RNA 1
RNA 2: B4 RNA 2 with G27U, G28C, C29A, G53U, U54G
B26: target 2 MT 5'PFS GAC 3'PFS UAA (mixed)
RNA 1: B4 RNA 1
RNA 2: B4 RNA 2 with G28A, C52U, G53A, U54A
B27: target 2 MT 5'PFS GCA 3'PFS UAA (mixed)
RNA 1: B4 RNA 1
RNA 2: B4 RNA 2 with G28C, C29A, C52U, G53A, U54A
B28: target 2 MT 5'PFS CAU 3'PFS ACC (mixed)
RNA 1: B4 RNA 1
RNA 2: B4 RNA 2 with G27C, G28A, C29U, C52A, G53C, U54C
B29: target 2 MT 5'PFS UAU 3'PFS UUA (mixed)
RNA 1: B4 RNA 1
RNA 2: B4 RNA 2 with G27U, G28A, C29U, C52U, G53U, U54A
B30: target 2 MT 5'PFS CAU 3'PFS ACA (mixed)
RNA 1: B4 RNA 1
RNA 2: B4 RNA 2 with G27C, G28A, C29U, C52A, G53C, U54A
B31: target 2 MT 5'PFS CUG 3'PFS AUC (mixed)
RNA 1: B4 RNA 1
RNA 2: B4 RNA 2 with G27C, G28U, C29G, C52A, G53U, U54C
B32: target 2 MT 5'PFS UAU 3'PFS CAC (mixed)
RNA 1: B4 RNA 1
RNA 2: B4 RNA 2 with G27U, G28A, C29U, G53A, U54C
B33: target 2 MT 5'PFS UCA 3'PFS CUC (mixed)
RNA 1: B4 RNA 1
RNA 2: B4 RNA 2 with G27U, G28C, C29A, G53U, U54C
B34: target 2 MT 5'PFS UCA 3'PFS CUA (mixed)
RNA 1: B4 RNA 1
RNA 2: B4 RNA 2 with G27U, G28C, C29A, G53U, U54A
B35: target 2 MT 5'PFS GAC 3'PFS UAG (mixed)
RNA 1: B4 RNA 1
RNA 2: B4 RNA 2 with G28A, C52U, G53A, U54G
B36: target 2 MT 5'PFS UAU 3'PFS UUG (mixed)
RNA 1: B4 RNA 1
RNA 2: B4 RNA 2 with G27U, G28A, C29U, C52U, G53U, U54G
B37: target 2 MT 5'PFS GAC 3'PFS UAU (mixed)
RNA 1: B4 RNA 1
RNA 2: B4 RNA 2 with G28A, C52U, G53A
B38: target 2 MT 5'PFS AGU 3'PFS UAC (mixed)
RNA 1: B4 RNA 1
RNA 2: B4 RNA 2 with G27A, C29U, C52U, G53A, U54C

Target: T1, EsCas13d, nuclease-dead
Assay: crRNA (strand 1, pre-loaded); Mg2+; 40 mM Tris-HCl pH 7.5, 150 mM NaCl, 6 mM MgCl2, 1 mM DTT, 0.1% Tween-20, 0.2 mg/ml BSA; 25 C; 10 min per concentration, then washed
Settings: tags: His6-TwinStrep-SUMO cleaved; N-terminal SNAP kept (SNAP-Surface 488); label: 3' end held by stalled T7 RNA polymerase

Row | Binder | Kd [nM]
1 | B1 | 6.4 ± 0.5
2 | B2 | 68 ± 22
3 | B3 | 3.87 ± 0.21
4 | B4 | 18 ± 2.4
5 | B5 | 10.7 ± 1.5
6 | B6 | 7.3 ± 1.4
7 | B7 | 4.9 ± 1.1
8 | B8 | 6.4 ± 1.5
9 | B9 | 14.2 ± 1.5
10 | B10 | 4.3 ± 0.9
11 | B11 | 15 ± 5
12 | B12 | 27 ± 8
13 | B13 | 7.1 ± 3.2
14 | B14 | 12 ± 0.7
15 | B15 | 13.3 ± 2
16 | B16 | 31 ± 5
17 | B17 | 34 ± 7
18 | B18 | 10.2 ± 3.1
19 | B19 | 4 ± 1.3

Row | Binder | Kd [nM]
20 | B20 | 48 ± 11
21 | B21 | 25 ± 11
22 | B22 | 12.3 ± 2.1
23 | B23 | 8.1 ± 0.7
24 | B24 | 12.3 ± 2.6
25 | B25 | 7.3 ± 1.1
26 | B26 | 9.5 ± 1.8
27 | B27 | 6.4 ± 1.3
28 | B28 | 5.9 ± 0.7
29 | B29 | 33 ± 9
30 | B30 | 6 ± 1.2
31 | B31 | 2.3 ± 0.4
32 | B32 | 47 ± 9
33 | B33 | 8.7 ± 2.2
34 | B34 | 6.3 ± 1.7
35 | B35 | 7.5 ± 1
36 | B36 | 23.1 ± 3.1
37 | B37 | 10.8 ± 2.4
38 | B38 | 15.1 ± 3.3
